From ChEMBL document CHEMBL2074234, “Functional expression of the canalicular bile salt export pump of human liver” (Gastroenterology, 2002)

What was measured:
Assay type in all cases: functional, cell membranes, Membrane vesicle
[1] = substrate: C[C@H](CCC(=O)NCC(=O)O)[C@H]1CC[C@H]2[C@@H]3[C@H](O)C[C@@H]4C[C@H](O)CC[C@]4(C)[C@H]3C[C@H](O)[C@]12C; test: (§1) TP_TRANSPORTER: uptake in membrane vesicles isolated from Bsep-expressing Sf9 cells
[2] = substrate: C[C@H](CCC(=O)NCCS(=O)(=O)O)[C@H]1CC[C@H]2[C@@H]3[C@H](O)C[C@@H]4C[C@H](O)CC[C@]4(C)[C@H]3CC[C@]12C; test: as §1
[3] = substrate: C[C@H](CCC(=O)NCCS(=O)(=O)O)[C@H]1CC[C@H]2[C@@H]3[C@@H](O)C[C@@H]4C[C@H](O)CC[C@]4(C)[C@H]3CC[C@]12C; test: as §1

B1: Bile salt export pump (Homo sapiens) (protein)
chain: MSDSVILRSIKKFGEENDGFESDKSYNNDKKSRLQDEKKGDGVRVGFFQLFRFSSSTDIWLMFVGSLCAFLHGIAQPGVLLIFGTMTDVFIDYDVELQELQIPGKACVNNTIVWTNSSLNQNMTNGTRCGLLNIESEMIKFASYYAGIAVAVLITGYIQICFWVIAAARQIQKMRKFYFRRIMRMEIGWFDCNSVGELNTRFSDDINKINDAIADQMALFIQRMTSTICGFLLGFFRGWKLTLVIISVSPLIGIGAATIGLSVSKFTDYELKAYAKAGVVADEVISSMRTVAAFGGEKREVERYEKNLVFAQRWGIRKGIVMGFFTGFVWCLIFLCYALAFWYGSTLVLDEGEYTPGTLVQIFLSVIVGALNLGNASPCLEAFATGRAAATSIFETIDRKPIIDCMSEDGYKLDRIKGEIEFHNVTFHYPSRPEVKILNDLNMVIKPGEMTALVGPSGAGKSTALQLIQRFYDPCEGMVTVDGHDIRSLNIQWLRDQIGIVEQEPVLFSTTIAENIRYGREDATMEDIVQAAKEANAYNFIMDLPQQFDTLVGEGGGQMSGGQKQRVAIARALIRNPKILLLDMATSALDNESEAMVQEVLSKIQHGHTIISVAHRLSTVRAADTIIGFEHGTAVERGTHEELLERKGVYFTLVTLQSQGNQALNEEDIKDATEDDMLARTFSRGSYQDSLRASIRQRSKSQLSYLVHEPPLAVVDHKSTYEEDRKDKDIPVQEEVEPAPVRRILKFSAPEWPYMLVGSVGAAVNGTVTPLYAFLFSQILGTFSIPDKEEQRSQINGVCLLFVAMGCVSLFTQFLQGYAFAKSGELLTKRLRKFGFRAMLGQDIAWFDDLRNSPGALTTRLATDASQVQGAAGSQIGMIVNSFTNVTVAMIIAFSFSWKLSLVILCFFPFLALSGATQTRMLTGFASRDKQALEMVGQITNEALSNIRTVAGIGKERRFIEALETELEKPFKTAIQKANIYGFCFAFAQCIMFIANSASYRYGGYLISNEGLHFSYVFRVISAVVLSATALGRAFSYTPSYAKAKISAARFFQLLDRQPPISVYNTAGEKWDNFQGKIDFVDCKFTYPSRPDSQVLNGLSVSISPGQTLAFVGSSGCGKSTSIQLLERFYDPDQGKVMIDGHDSKKVNVQFLRSNIGIVSQEPVLFACSIMDNIKYGDNTKEIPMERVIAAAKQAQLHDFVMSLPEKYETNVGSQGSQLSRGEKQRIAIARAIVRDPKILLLDEATSALDTESEKTVQVALDKAREGRTCIVIAHRLSTIQNADIIAVMAQGVVIEKGTHEELMAQKGAYYKLVTTGSPIS
[1]
  Km: 11.1 µM
[2]
  Km: 4.8 µM
[3]
  Km: 11.9 µM
